From patent US20140271651A1 (AbbVie / Abbott, published 2014)

T1: GP73-hFc (human GP73 amino acids 63 to 400 fused at the C-terminus to human IgG1 Fc) (human)
T1 construct: Expressed in HEK293F, CHO or HepG2 cells; the host is named under assay; also called HEK expressed GP73-hFc; CHO expressed GP73-hFc
T1 chain: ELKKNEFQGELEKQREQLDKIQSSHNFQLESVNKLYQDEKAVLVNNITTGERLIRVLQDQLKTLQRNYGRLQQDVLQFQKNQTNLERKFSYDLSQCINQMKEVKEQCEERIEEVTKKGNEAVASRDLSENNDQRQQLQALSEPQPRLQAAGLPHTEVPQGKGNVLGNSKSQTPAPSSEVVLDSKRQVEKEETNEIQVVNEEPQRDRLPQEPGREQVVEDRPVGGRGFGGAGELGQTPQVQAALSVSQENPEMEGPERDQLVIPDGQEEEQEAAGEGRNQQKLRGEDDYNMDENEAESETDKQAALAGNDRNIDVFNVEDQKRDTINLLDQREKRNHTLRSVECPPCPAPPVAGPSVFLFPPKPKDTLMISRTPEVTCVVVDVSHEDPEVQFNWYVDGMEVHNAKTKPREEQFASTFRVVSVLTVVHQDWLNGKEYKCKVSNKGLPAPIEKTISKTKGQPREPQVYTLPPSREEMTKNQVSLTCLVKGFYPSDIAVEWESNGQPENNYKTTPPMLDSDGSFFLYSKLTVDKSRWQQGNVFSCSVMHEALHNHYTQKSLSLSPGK

T2: E. coli expressed human GP73 (amino acids 63 to 400) with C-terminal 6xHis tag (human, UniProt Q8NBJ4 64-401)
T2 construct: No human Fc, not glycosylated; also called GP73 produced in E. coli; E. coli GP73
T2 sequence: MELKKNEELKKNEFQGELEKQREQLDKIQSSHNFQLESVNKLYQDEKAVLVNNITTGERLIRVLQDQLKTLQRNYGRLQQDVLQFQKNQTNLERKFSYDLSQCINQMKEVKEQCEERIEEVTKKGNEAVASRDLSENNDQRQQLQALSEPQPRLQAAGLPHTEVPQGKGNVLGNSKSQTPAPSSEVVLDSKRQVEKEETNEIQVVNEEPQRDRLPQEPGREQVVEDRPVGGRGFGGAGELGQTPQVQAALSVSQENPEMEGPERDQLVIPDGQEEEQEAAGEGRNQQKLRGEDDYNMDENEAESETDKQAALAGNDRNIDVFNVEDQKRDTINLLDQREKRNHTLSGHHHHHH


Legend:
[1] = biological target: T1, GP73-hFc (human GP73 amino acids 63 to …); assay: EIA, supernatant 1:25 captured on sheep anti-mouse IgG Fc, GP73-hFc, biotin goat anti-GP73
Method: Cell supernatant samples were analyzed for anti-GP73 antibodies by EIA. Sheep anti-mouse IgG Fc (Jackson Immunoresearch) was coated on 96 well micro-titer EIA plates at 1 μg/mL. After the capture reagent was coated on the solid phase, it was removed and the plates were blocked using a BSA/PBS block solution. The wells were washed with distilled water and cell supernatants were added to the blocked plates and allowed to incubate at room temperature for at least one hour. A mouse monoclonal antibody 14H4-23 (Drexel University) was used a positive control. The anti-mouse IgG Fc captured the anti-GP73 mouse antibody from the supernatant. Following the incubation, the supernatants were washed off using distilled water. An irrelevant mouse-human chimeric antibody was added to all wells and incubated at room temperature for 30 min to block any captured mouse antibodies that react with the human IgG Fc fusion protein linked to the GP73 antigen. The wells were washed with distilled water and GP73-hFc was added to the plates at 200 ng/mL and incubated for 30 min. Following this incubation, the antigen was washed from the plates using distilled water. Biotin labeled goat anti-GP73 was added to the plates at 200 ng/mL and incubated for 30 min at room temperature. The plates were washed and streptavidin-HRPO (Jackson Immunoresearch) (diluted to approximately 200 ng/mL) was added to the plates and allowed to incubate for 30 min. The plates were washed with distilled water and OPD substrate was used as the chromagen to generate signal. Plates were read at 492 nm and the results were analyzed.
Positive clones were expanded to 24 well plates in IMDM supplemented with 10% FBS and HT supplement. Following 5-14 days growth, the 24 well cultures were evaluated by EIA in the same manner as previously described, except the supernatant samples were titrated against GP73-hFc and BSA to eliminate non-specific protein binders. Once again the clones generating signal at least 3 times greater than background were considered positive and selected for further evaluation.

[2] = biological target: T2, E. coli expressed human GP73 (amino …); assay: Western blot on E. coli expressed GP73 antigen
Method: The mammalian cell (HEK and CHO) expressed GP73-hFc or E. coli expressed GP73, as described above, were electrophoresed in a 4-20% SDS-PAGE gel. […] The nitrocellulose membrane was blocked with PBS buffer containing 5% non-fat dry milk and 0.05% Tween 20 for about 1 hr. The nitrocellulose membrane was incubated with an appropriate amount of anti-GP73 monoclonal antibody in 10 mL of 2.5% non-fat dry milk and 0.05% Tween 20 PBS buffer, pH 7.2. The nitrocellulose membranes were washed with 0.05% Tween 20/PBS, pH 7.2, incubated with goat anti-mouse IgG antibody conjugated with HRP for 1 hr at room temperature, and washed with 0.05% Tween 20/PBS buffer. Antibody bound to the GP73 protein was visualized by the addition of freshly prepared metal enhanced 3,3′-Diaminobenzidine in stable peroxide buffer (Pierce, Ill.).

[3] = biological target: T2, E. coli expressed human GP73 (amino …); assay: Binds E. coli GP73 (summary table; EIA on coated E. coli GP73)
Method: The purified anti-GP73 mAbs were tested for EIA reactivity to human IgG, GP73 produced in E. coli, and GP73-hFc produced in HEK 293 cells. A mouse-human chimeric antibody, GP73 produced in E. coli, and GP73-hFc produced in HEK 293 cells were coated on micro titer plates at approximately 1000 ng/mL and allowed to incubate over night at 4-8° C. After the capture reagent was coated on the solid phase, it was removed and blocked using a BSA/PBS block solution. The wells were washed with distilled water. Purified anti-GP73 and negative control mAbs were added to the blocked plates in serial dilutions starting at 1000 ng/mL and allowed to incubate at room temperature for approximately 30 min. The wells were washed with distilled water. Goat anti-mouse IgG-HRP (Jackson Immunoresearch) was added to the wells at approximately 250 ng/mL and allowed to incubate for approximately 30 min at room temperature. The plates were washed with distilled water and OPD substrate was used as the chromagen to generate signal. Plates were read at 492 nm and the results were analyzed.

GP73-hFc OD (A492) [1]	binding result [2]	binding result [3]	Binder
1.61 OD (A492)	binds		anti-GP73 monoclonal antibody 1B-4863 (antibody, V domains shown, Biotin labelled in some assays; also called mAb 1B-4863; 1B-4863-Bt) VH: QVQLKESGPGLVAPSQSLSITCTVSGFSLTSYGVHWVRQSPGKGLEWLGVIWTGGSTNYNSALMSRLSISKDNSESQVFLKVNSLQTDDTGMYYCARDPGTDYFDYWGQGTTLTVSS VL: DIVMTQSHKFMSTSIGDRVSISCKASQDVSIDVSWYQQKPGQSPTLLIYSASYRYIGVPDRFTGSGSGTAFTFTISSVQAEDLAIYYCQQHFTTPLTFGAGTKLELKR
2.1 OD (A492)		binds	anti-GP73 monoclonal antibody 1B-4971 (antibody, V domains shown, Biotin labelled in some assays; also called mAb 1B-4971; 1B-4971-Bt) VH: QVQLQQSGPALVKPGASVKMSCKASGYTFTNYVIHWVKQKPGQGLERIGYIWPYNDGTKFNEKFKGKATLTSDKSSSTAYMELSSLTSEDSAVYYCSSQQLAYWGQGTTLTVSS VL: not shown
1.51 OD (A492)		binds	anti-GP73 monoclonal antibody 1B-3440 (antibody, V domains shown, Biotin labelled in some assays; also called mAb 1B-3440; 1B-3440-Bt) VH: EVQLVETGGGLVQPKGSLKLSCAASGFTFNTNAMNWVRQAPGKGLEWVARIRTKRYNYTTFYADSVKDRFTISRDDSQSMLFLQMNNLKTEDTAMYYCVTGGTGTFDYWGQGTTLTVSS VL: EIVLTQSPTTMPASPGEKVTFTCSASSGISSNYLHWYQLKPGFSPKLLIYRTSNLASGVPARFSGGGSGTSYSLTIGTMEAEDVATYYCQQGFSIPLTFGAGTKLELKR
